# Biological target: T1, soluble human CD3ε chain (human, UniProt P07766 23-126, limits assumed)
# T1 construct: also called human CD3 epsilon chain
# Assay: SPR (Biacore), soluble human CD3ε chain
# T1 sequence (P07766 23-126 limits assumed): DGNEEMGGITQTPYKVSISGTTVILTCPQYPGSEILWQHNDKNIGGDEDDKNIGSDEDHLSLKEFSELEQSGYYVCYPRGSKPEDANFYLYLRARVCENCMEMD
row,Binder,Kd
1,"TR01H011-E22Hh/none-Hi-Kn010G3/L0000-k0 (antibody, human IgG1, kappa, L234A L235A, N297A, one-arm antibody (single Fab) with Fab-less hinge-Fc chain Hi-Kn010G3) heavy: QVQLVESGGGLVQPGRSLRLSCAASGFTFSNAWMHWVRQAPGKGLEWVAQIKAKSNNYATYYAESVKGRFTISRADSKNSIYLQMNSLKTEDTAVYYCRYVHYGASYGVDIWGQGTTVTVSSASTKGPSVFPLAPSSKSTSGGTAALGCLVKDYFPEPVTVSWNSGALTSGVHTFPAVLQSSGLYSLSSVVTVPSSSLGTQTYICNVNHKPSNTKVDKKVEPKSCDKTHTCPPCPAPEAAGGPSVFLFPPKPKDTLMISRTPEVTCVVVDVSHEDPEVKFNWYVDGVEVHNAKTKPREEQYASTYRVVSVLTVLHQDWLNGKEYKCKVSNKALPAPIEKTISKAKGQPREPQVYTLPPSRCELTKNQVSLSCAVKGFYPSDIAVEWESNGQPENNYKTTPPVLDSDGSFFLVSKLTVDKSRWQQGNVFSCSVMHEALHNHYTQKSLSLSPDYKDDDDK EPKSSDKTHTCPPCPAPELLGGPSVFLFPPKPKDTLMISRTPEVTCVVVDVSHEDPEVKFNWYVDGVEVHNAKTKPREEQYNSTYRVVSVLTVLHQDWLNGKEYKCKVSNKALPAPIEKTISKAKGQPREPQVCTLPPSRDELTKNQVSLWCLVKGFYPSDIAVEWESNGQPENNYKTTPPVLDSDGSFFLYSKLTVDKSRWQQGNVFSCSVMHEALHNRYTQKSLSLSP light: DIVMTQSPLSLPVTPGEPASISCRSSQSLVHSNRNTYLHWYQQKPGQAPRLLIYKVSNRFSGVPDRFSGSGSGTDFTLKISRVEAEDVGVYYCGQGTQVPYTFGQGTKLEIKRTVAAPSVFIFPPSDEQLKSGTASVVCLLNNFYPREAKVQWKVDNALQSGNSQESVTEQDSKDSTYSLSSTLTLSKADYEKHKVYACEVTHQGLSSPVTKSFNRGEC",37.1 nM
2,"TR01H015-E22Hh/none-Hi-Kn010G3/TR01L002-k0 (antibody, human IgG1, kappa, L234A L235A, N297A, one-arm antibody (single Fab) with Fab-less hinge-Fc chain Hi-Kn010G3) heavy: QVQLVESGGGLVQPGRSLRLSCAASGFTFSNAWMHWVRQAPGKGLEWVAQIKGKSNNYATYYAESVKGRFTISRADSKNSIYLQMNSLKTEDTAVYYCRYVHYSASYGVDIWGQGTTVTVSSASTKGPSVFPLAPSSKSTSGGTAALGCLVKDYFPEPVTVSWNSGALTSGVHTFPAVLQSSGLYSLSSVVTVPSSSLGTQTYICNVNHKPSNTKVDKKVEPKSCDKTHTCPPCPAPEAAGGPSVFLFPPKPKDTLMISRTPEVTCVVVDVSHEDPEVKFNWYVDGVEVHNAKTKPREEQYASTYRVVSVLTVLHQDWLNGKEYKCKVSNKALPAPIEKTISKAKGQPREPQVYTLPPSRCELTKNQVSLSCAVKGFYPSDIAVEWESNGQPENNYKTTPPVLDSDGSFFLVSKLTVDKSRWQQGNVFSCSVMHEALHNHYTQKSLSLSPDYKDDDDK EPKSSDKTHTCPPCPAPELLGGPSVFLFPPKPKDTLMISRTPEVTCVVVDVSHEDPEVKFNWYVDGVEVHNAKTKPREEQYNSTYRVVSVLTVLHQDWLNGKEYKCKVSNKALPAPIEKTISKAKGQPREPQVCTLPPSRDELTKNQVSLWCLVKGFYPSDIAVEWESNGQPENNYKTTPPVLDSDGSFFLYSKLTVDKSRWQQGNVFSCSVMHEALHNRYTQKSLSLSP light: DIVMTQSPLSLPVTPGEPASISCRSSQSLVHSNRNTYLHWYLQKPGQSPQLLIYKVSNRFSGVPDRFSGSGSGTDFTLKISRVEAEDVGVYYCGQGTQVPYTFGQGTKLEIKRTVAAPSVFIFPPSDEQLKSGTASVVCLLNNFYPREAKVQWKVDNALQSGNSQESVTEQDSKDSTYSLSSTLTLSKADYEKHKVYACEVTHQGLSSPVTKSFNRGEC",71.4 nM
3,"TR01H015-E22Hh/none-Hi-Kn010G3/TR01L004-k0 (antibody, human IgG1, kappa, L234A L235A, N297A, one-arm antibody (single Fab) with Fab-less hinge-Fc chain Hi-Kn010G3) heavy: QVQLVESGGGLVQPGRSLRLSCAASGFTFSNAWMHWVRQAPGKGLEWVAQIKGKSNNYATYYAESVKGRFTISRADSKNSIYLQMNSLKTEDTAVYYCRYVHYSASYGVDIWGQGTTVTVSSASTKGPSVFPLAPSSKSTSGGTAALGCLVKDYFPEPVTVSWNSGALTSGVHTFPAVLQSSGLYSLSSVVTVPSSSLGTQTYICNVNHKPSNTKVDKKVEPKSCDKTHTCPPCPAPEAAGGPSVFLFPPKPKDTLMISRTPEVTCVVVDVSHEDPEVKFNWYVDGVEVHNAKTKPREEQYASTYRVVSVLTVLHQDWLNGKEYKCKVSNKALPAPIEKTISKAKGQPREPQVYTLPPSRCELTKNQVSLSCAVKGFYPSDIAVEWESNGQPENNYKTTPPVLDSDGSFFLVSKLTVDKSRWQQGNVFSCSVMHEALHNHYTQKSLSLSPDYKDDDDK EPKSSDKTHTCPPCPAPELLGGPSVFLFPPKPKDTLMISRTPEVTCVVVDVSHEDPEVKFNWYVDGVEVHNAKTKPREEQYNSTYRVVSVLTVLHQDWLNGKEYKCKVSNKALPAPIEKTISKAKGQPREPQVCTLPPSRDELTKNQVSLWCLVKGFYPSDIAVEWESNGQPENNYKTTPPVLDSDGSFFLYSKLTVDKSRWQQGNVFSCSVMHEALHNRYTQKSLSLSP light: DIVMTQSPLSLPVTPGEPASISCQASESLVHSNRNTYLHWYQQKPGQAPRLLIYKVSNRFSGVPDRFSGSGSGTDFTLKISRVEAEDVGVYYCGQGTQVPYTFGQGTKVEIERTVAAPSVFIFPPSDEQLKSGTASVVCLLNNFYPREAKVQWKVDNALQSGNSQESVTEQDSKDSTYSLSSTLTLSKADYEKHKVYACEVTHQGLSSPVTKSFNRGEC",73.4 nM

# Other lines, results leading:
row,Kd,Binder
1,80.5 nM,"TR01H021-E22Hh/none-Hi-Kn010G3/L0000-k0 (antibody, human IgG1, kappa, L234A L235A, N297A, one-arm antibody (single Fab) with Fab-less hinge-Fc chain Hi-Kn010G3) heavy: QVQLVESGGGLVQPGRSLRLSCAASGFTFSNAWMHWVRQAPGKGLEWVAQIKGKSNNYATYYAESVKGRFTISRADSKNSIYLQMNSLKTEDTAVYYCRYVHYSASYGVDAWGQGTTVTVSSASTKGPSVFPLAPSSKSTSGGTAALGCLVKDYFPEPVTVSWNSGALTSGVHTFPAVLQSSGLYSLSSVVTVPSSSLGTQTYICNVNHKPSNTKVDKKVEPKSCDKTHTCPPCPAPEAAGGPSVFLFPPKPKDTLMISRTPEVTCVVVDVSHEDPEVKFNWYVDGVEVHNAKTKPREEQYASTYRVVSVLTVLHQDWLNGKEYKCKVSNKALPAPIEKTISKAKGQPREPQVYTLPPSRCELTKNQVSLSCAVKGFYPSDIAVEWESNGQPENNYKTTPPVLDSDGSFFLVSKLTVDKSRWQQGNVFSCSVMHEALHNHYTQKSLSLSPDYKDDDDK EPKSSDKTHTCPPCPAPELLGGPSVFLFPPKPKDTLMISRTPEVTCVVVDVSHEDPEVKFNWYVDGVEVHNAKTKPREEQYNSTYRVVSVLTVLHQDWLNGKEYKCKVSNKALPAPIEKTISKAKGQPREPQVCTLPPSRDELTKNQVSLWCLVKGFYPSDIAVEWESNGQPENNYKTTPPVLDSDGSFFLYSKLTVDKSRWQQGNVFSCSVMHEALHNRYTQKSLSLSP light: DIVMTQSPLSLPVTPGEPASISCRSSQSLVHSNRNTYLHWYQQKPGQAPRLLIYKVSNRFSGVPDRFSGSGSGTDFTLKISRVEAEDVGVYYCGQGTQVPYTFGQGTKLEIKRTVAAPSVFIFPPSDEQLKSGTASVVCLLNNFYPREAKVQWKVDNALQSGNSQESVTEQDSKDSTYSLSSTLTLSKADYEKHKVYACEVTHQGLSSPVTKSFNRGEC"
2,75.8 nM,"TR01H022-E22Hh/none-Hi-Kn010G3/L0000-k0 (antibody, human IgG1, kappa, L234A L235A, N297A, one-arm antibody (single Fab) with Fab-less hinge-Fc chain Hi-Kn010G3) heavy: QVQLVESGGGLVQPGGSLRLSCAASGFTFSNAWMHWVRQAPGKGLEWVAQIKGKSQNYATYYAPSVKGRFTISRADSKNSIYLQMNSLKTEDTAVYYCRYVHYSASYGVDIWGQGTTVTVSSASTKGPSVFPLAPSSKSTSGGTAALGCLVKDYFPEPVTVSWNSGALTSGVHTFPAVLQSSGLYSLSSVVTVPSSSLGTQTYICNVNHKPSNTKVDKKVEPKSCDKTHTCPPCPAPEAAGGPSVFLFPPKPKDTLMISRTPEVTCVVVDVSHEDPEVKFNWYVDGVEVHNAKTKPREEQYASTYRVVSVLTVLHQDWLNGKEYKCKVSNKALPAPIEKTISKAKGQPREPQVYTLPPSRCELTKNQVSLSCAVKGFYPSDIAVEWESNGQPENNYKTTPPVLDSDGSFFLVSKLTVDKSRWQQGNVFSCSVMHEALHNHYTQKSLSLSPDYKDDDDK EPKSSDKTHTCPPCPAPELLGGPSVFLFPPKPKDTLMISRTPEVTCVVVDVSHEDPEVKFNWYVDGVEVHNAKTKPREEQYNSTYRVVSVLTVLHQDWLNGKEYKCKVSNKALPAPIEKTISKAKGQPREPQVCTLPPSRDELTKNQVSLWCLVKGFYPSDIAVEWESNGQPENNYKTTPPVLDSDGSFFLYSKLTVDKSRWQQGNVFSCSVMHEALHNRYTQKSLSLSP light: DIVMTQSPLSLPVTPGEPASISCRSSQSLVHSNRNTYLHWYQQKPGQAPRLLIYKVSNRFSGVPDRFSGSGSGTDFTLKISRVEAEDVGVYYCGQGTQVPYTFGQGTKLEIKRTVAAPSVFIFPPSDEQLKSGTASVVCLLNNFYPREAKVQWKVDNALQSGNSQESVTEQDSKDSTYSLSSTLTLSKADYEKHKVYACEVTHQGLSSPVTKSFNRGEC"
3,79.4 nM,"TR01H023-E22Hh/none-Hi-Kn010G3/L0000-k0 (antibody, human IgG1, kappa, L234A L235A, N297A, one-arm antibody (single Fab) with Fab-less hinge-Fc chain Hi-Kn010G3) heavy: QVQLVESGGGLVQPGGSLRLSCAASGFTFSNAWMHWVRQAPGKGLEWVAQIKGKSQNYATYYAESVKGRFTISRADSKNSIYLQMNSLKTEDTAVYYCRYVHYSASYGVDIWGQGTTVTVSSASTKGPSVFPLAPSSKSTSGGTAALGCLVKDYFPEPVTVSWNSGALTSGVHTFPAVLQSSGLYSLSSVVTVPSSSLGTQTYICNVNHKPSNTKVDKKVEPKSCDKTHTCPPCPAPEAAGGPSVFLFPPKPKDTLMISRTPEVTCVVVDVSHEDPEVKFNWYVDGVEVHNAKTKPREEQYASTYRVVSVLTVLHQDWLNGKEYKCKVSNKALPAPIEKTISKAKGQPREPQVYTLPPSRCELTKNQVSLSCAVKGFYPSDIAVEWESNGQPENNYKTTPPVLDSDGSFFLVSKLTVDKSRWQQGNVFSCSVMHEALHNHYTQKSLSLSPDYKDDDDK EPKSSDKTHTCPPCPAPELLGGPSVFLFPPKPKDTLMISRTPEVTCVVVDVSHEDPEVKFNWYVDGVEVHNAKTKPREEQYNSTYRVVSVLTVLHQDWLNGKEYKCKVSNKALPAPIEKTISKAKGQPREPQVCTLPPSRDELTKNQVSLWCLVKGFYPSDIAVEWESNGQPENNYKTTPPVLDSDGSFFLYSKLTVDKSRWQQGNVFSCSVMHEALHNRYTQKSLSLSP light: DIVMTQSPLSLPVTPGEPASISCRSSQSLVHSNRNTYLHWYQQKPGQAPRLLIYKVSNRFSGVPDRFSGSGSGTDFTLKISRVEAEDVGVYYCGQGTQVPYTFGQGTKLEIKRTVAAPSVFIFPPSDEQLKSGTASVVCLLNNFYPREAKVQWKVDNALQSGNSQESVTEQDSKDSTYSLSSTLTLSKADYEKHKVYACEVTHQGLSSPVTKSFNRGEC"
